Molecular target: T1, Flag-tagged Iso1, MC1R-TUBB3 in-frame intergenic splice chimera (human)
T1 construct: numbers count on: MC1R-002; Tubulin-β-III, human; A BamHI site in the TUBB3 part was ablated by site-directed mutagenesis (ATC to ATT by the printed primer, silent by my reading); also called Flag-Iso1; MC1R-TUBB3 chimeric isoform Iso1; source: HEK293T, transfected (pcDNA3); not shown: Flag, N-terminal, kept
Experiment: radioligand binding; equilibrium competition binding on transfected HEK293T cells, 24 h after transfection, serum deprived 3 h; 125I-NDP-MSH 5x10^-11 M with unlabelled NDP-MSH from 10^-12 to 10^-7 M
Settings: one partner purified

B1: [Nle4, D-Phe7]-αMSH (NDP-MSH), 125I-labelled (peptide)
chain: SYSLEHFRWGKPV
modifications: not fully specified; Nle at position 4; D-Phe at position 7; 125I label (tracer)
- Kd: 0.59 nM

From publication PMC4676704, “Functional Characterization of MC1R-TUBB3 Intergenic Splice Variants of the Human Melanocortin 1 Receptor” (PLoS ONE, 2015)
